Results published in US20190170753A1 (ICAHN SCHOOL OF MEDICINE AT MOUNT SINAI, published 2019).
Where no end group is shown, it is not given here.

Tests used:
[1] = target: T1, Mut1T110N biotin labeled HCV core peptide (hepatitis C virus, biotin labeled (position not given)); experiment: capture EIA; Ab 500 ng/mL; bt-peptide 500 ng/mL
T1 peptide: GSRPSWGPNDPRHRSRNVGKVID

[2] = target: T2, C113T109N biotin labeled HCV core peptide (hepatitis C virus, also: biotin labeled, position not given here); experiment: capture EIA; Ab 500 ng/mL; bt-peptide 500 ng/mL
T2 construct: also called C113T110N
T2 peptide: RGSRPSWGPND

[3] = target: T3, C113WT biotin labeled HCV core peptide (hepatitis C virus, also: biotin labeled, position not given here); experiment: capture EIA; Ab 500 ng/mL; bt-peptide 500 ng/mL
T3 peptide: RGSRPSWGPTD

[4] = target: T4, Mut6T110S biotin labeled HCV core peptide (hepatitis C virus, biotin labeled (position not given)); experiment: capture EIA; Ab 500 ng/mL; bt-peptide 500 ng/mL
[5] = target: T5, 92-133 biotin labeled HCV core peptide (hepatitis C virus, UniProt Q9WMX2 92-133, chain 1: biotin label (bt-pep). Its position and any spacer are not visible in the passages shown.); experiment: capture EIA; Ab 500 ng/mL; bt-peptide 500 ng/mL
T5 construct: Only the label 92-133 is printed
T5 peptide: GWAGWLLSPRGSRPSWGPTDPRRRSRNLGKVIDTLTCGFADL
Procedure: (§1) Assay wells were coated with sheep anti-mouse IgG Fc specific antibody and incubated overnight. The coating solution was then removed; the wells blocked using BSA/tween in PBS and then washed with dH2O. […] Next, biotin labeled peptides (diluted to 500 ng/mL in block) were added, the plates incubated for 10 minutes while shaking at 700 rpm and then washed. Peroxidase conjugated streptavidin (diluted to 200 ng/mL in block) was then added to all assay wells, incubated for 20 minutes while shaking at 700 rpm and then washed. Finally, color was developed using OPD and signal quenched using 1N H₂SO₄. Signal was read at 492 nm.

[6] = target: T6, WT1STHV biotin labeled HCV core peptide (hepatitis C virus, biotin labeled (position not given)); experiment: capture EIA; Ab 500 ng/mL; bt-peptide 500 ng/mL
T6 peptide: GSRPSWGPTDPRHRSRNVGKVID

[7] = target: T1, Mut1T110N biotin labeled HCV core …; experiment: capture EIA; Ab 7.813 ng/mL; bt-peptide 500 ng/mL
Procedure: as §1

[8] = target: T2, C113T109N biotin labeled HCV core …; experiment: capture EIA; Ab 7.813 ng/mL; bt-peptide 500 ng/mL
Procedure: as §1

[9] = target: T3, C113WT biotin labeled HCV core peptide; experiment: capture EIA; Ab 7.813 ng/mL; bt-peptide 500 ng/mL
Procedure: as §1

[10] = target: T4, Mut6T110S biotin labeled HCV core …; experiment: capture EIA; Ab 7.813 ng/mL; bt-peptide 500 ng/mL
Procedure: as §1

[11] = target: T5, 92-133 biotin labeled HCV core peptide; experiment: capture EIA; Ab 7.813 ng/mL; bt-peptide 500 ng/mL
Procedure: as §1

[12] = target: T6, WT1STHV biotin labeled HCV core peptide; experiment: capture EIA; Ab 7.813 ng/mL; bt-peptide 500 ng/mL
Procedure: as §1

[13] = target: T7, HCV core peptide 53 (hepatitis C virus, HELM PEPTIDE1{[O=C1N[C@H]2[C@H](CS[C@H]2CCCCC(=O)[*:2])N1].S.G.S.G.P.S.W.G.P.T.D.P.R.R.R.S.R.N.L.[am]}$$$$V2.0; SMILES …); experiment: peptide EIA, 2 ug/mL IgG (summary table)
T7 peptide: SGSGPSWGPTDPRRRSRNL
Procedure: The coated plates were kept dry in a sealed foil pouch and stored at <10 degrees C. until ready for use. A peptide coated plate for each test antibody was blocked using 3% BSA in PBS with 0.5% Tween 20. The blocked plates were washed with distilled water and a 2 ug/mL solution of purified IgG from each test sample diluted in BSA block solution was added to each peptide coated well of the blocked plate and allowed to incubate at room temperature for at least one hour. Following incubation the plates were washed with distilled water. A 200 ng/mL solution of peroxidase labeled F(ab′)2 fragment goat anti-mouse IgG Fc fragment specific (Jackson Immunoresearch) in BSA block solution was added to all wells and incubated at room temperature for 30 minutes. The plates were washed with distilled water and o-phenylenediamine substrate was used as the chromagen to generate signal. Plates were read at 492 nm and the results were analyzed.

[14] = target: T1, Mut1T110N biotin labeled HCV core …; experiment: capture EIA; Ab 250 ng/mL; bt-peptide 500 ng/mL
Procedure: as §1

[15] = target: T2, C113T109N biotin labeled HCV core …; experiment: capture EIA; Ab 250 ng/mL; bt-peptide 500 ng/mL
Procedure: as §1

[16] = target: T3, C113WT biotin labeled HCV core peptide; experiment: capture EIA; Ab 250 ng/mL; bt-peptide 500 ng/mL
Procedure: as §1

[17] = target: T4, Mut6T110S biotin labeled HCV core …; experiment: capture EIA; Ab 250 ng/mL; bt-peptide 500 ng/mL
Procedure: as §1

[18] = target: T5, 92-133 biotin labeled HCV core peptide; experiment: capture EIA; Ab 250 ng/mL; bt-peptide 500 ng/mL
Procedure: as §1

[19] = target: T6, WT1STHV biotin labeled HCV core peptide; experiment: capture EIA; Ab 250 ng/mL; bt-peptide 500 ng/mL
Procedure: as §1

[20] = target: T1, Mut1T110N biotin labeled HCV core …; experiment: capture EIA; Ab 31.25 ng/mL; bt-peptide 500 ng/mL
Procedure: as §1

[21] = target: T2, C113T109N biotin labeled HCV core …; experiment: capture EIA; Ab 31.25 ng/mL; bt-peptide 500 ng/mL
Procedure: as §1

[22] = target: T3, C113WT biotin labeled HCV core peptide; experiment: capture EIA; Ab 31.25 ng/mL; bt-peptide 500 ng/mL
Procedure: as §1

[23] = target: T4, Mut6T110S biotin labeled HCV core …; experiment: capture EIA; Ab 31.25 ng/mL; bt-peptide 500 ng/mL
Procedure: as §1

[24] = target: T5, 92-133 biotin labeled HCV core peptide; experiment: capture EIA; Ab 31.25 ng/mL; bt-peptide 500 ng/mL
Procedure: as §1

[25] = target: T6, WT1STHV biotin labeled HCV core peptide; experiment: capture EIA; Ab 31.25 ng/mL; bt-peptide 500 ng/mL
Procedure: as §1

B1: Neo4 mouse monoclonal antibody (antibody, V domains shown)
VH: QIQLKESGPAVIKPSQSLSLTCIVSGFSITSSVYCWQWIRQPPGKGLEWMGRICYDGSVDYSPSITSRGTISRDTSLNKVFFQLSSVTNEDTAMYYCSRENHIDYYDTTYPSFDVWGAGTTVTVSS
VL: DIVLTQSPASLIVSLGQRATISCRASKSVNEYGYTYMHWYQQKPGLPPKLLIYLASNLDSGVPARFSGSGSGTDFTLNIHPVEEEDAATYYCQHSRELPYTFGGGTKLEIKR
notes: Mouse hybridoma antibody, isotype IgG1, purified with Protein G; also called HCV Neo4
- signal at 492 nm [1]: 0.065 A492
- signal at 492 nm [2]: 0.0803 A492
- signal at 492 nm [3]: 0.0561 A492
- signal at 492 nm [4]: 1.17 A492
- signal at 492 nm [5]: 1.48 A492
- signal at 492 nm [6]: 1.91 A492
- signal at 492 nm [7]: 0.0729 A492
- signal at 492 nm [8]: 0.0751 A492
- signal at 492 nm [9]: 0.0731 A492
- signal at 492 nm [10]: 0.132 A492
- signal at 492 nm [11]: 0.45 A492
- signal at 492 nm [12]: 1.04 A492
- OD (A492 nm) [13]: 0.96 OD
- signal at 492 nm [14]: 0.089 A492
- signal at 492 nm [15]: 0.111 A492
- signal at 492 nm [16]: 0.0607 A492
- signal at 492 nm [17]: 1.15 A492
- signal at 492 nm [18]: 1.4 A492
- signal at 492 nm [19]: 1.99 A492
- signal at 492 nm [20]: 0.0938 A492
- signal at 492 nm [21]: 0.0815 A492
- signal at 492 nm [22]: 0.0622 A492
- signal at 492 nm [23]: 0.48 A492
- signal at 492 nm [24]: 1.11 A492
- signal at 492 nm [25]: 1.67 A492
